Measured values taken from US20020065226A1.
Blank lines part the entries; values can stand above or below the molecule they belong to. Non-standard residues stand in square brackets, D forms with d. pGlu = O=C1CC[C@@H](C(=O)O)N1; azaGly = NNC(=O)O

Legend:
[1] = target: chorionic peptidase-1 (C-ase-1) (human); assay: competitive inhibition of C-ase-1 degradation of GnRH
[2] = target: chorionic peptidase-1 (C-ase-1) (human); assay: inhibition of C-ase-1 degradation of GnRH (competitor)
[3] = target: chorionic peptidase-1 (C-ase-1) (human); assay: competitive inhibition of C-ase-1 degradation of GnRH (competitor)
[4] = target: chorionic peptidase-1 (C-ase-1) (human); assay: C-ase-1 degradation assay, Lineweaver-Burke double reciprocal plot
[5] = target: baboon ovarian enzymatic activity that degrades GnRH; assay: degradation assay with baboon ovarian homogenate, double reciprocal plot
[6] = target: chorionic peptidase-1 (C-ase-1) (human); assay: cell-based or functional assay
[7] = target: chorionic peptidase-1 (C-ase-1) (human); assay: competitive inhibition of C-ase-1 degradation of mammalian GnRH (competitor)
[8] = target: human placental GnRH receptor (human) (UniProt P30968); assay: competitive radioreceptor assay on human term placental membranes, radiolabeled Buserelin as competitor
[9] = target: human placental GnRH receptor (human) (UniProt P30968); assay: competitive radioreceptor assay, human term placental GnRH receptors, 125I-Buserelin as competitor
[10] = target: baboon ovarian GnRH receptor (baboon); assay: radioligand binding, baboon ovary membrane fraction
[11] = target: baboon endometrium GnRH receptor (baboon); assay: receptor binding, baboon endometrium (stroma and epithelium)
[12] = target: human placental GnRH receptor (human) (UniProt P30968); assay: homologous radioreceptor assay, average of three human term placental membrane preparations
[13] = target: baboon ovarian GnRH receptor (baboon); assay: radioreceptor assay, baboon ovary membrane fraction, radiolabeled D-Arg(6)-chicken II GnRH-aza-Gly(10)-amide
[14] = target: human placental GnRH receptor (human) (UniProt P30968); assay: radioreceptor assay on human term placental membranes, radiolabeled D-Arg(6)-chicken II GnRH-aza-Gly-amide as label
[15] = target: human placental GnRH receptor (human) (UniProt P30968); assay: homologous radioreceptor assay on human term placental membranes, radiolabeled D-Arg-chicken II GnRH-aza-Gly-amide as label
[16] = target: human placental GnRH receptor (human) (UniProt P30968); assay: homologous radioreceptor assay, placenta 2 membrane preparation, radiolabeled D-Arg(6)-chicken II GnRH-aza-Gly-amide as label
[17] = target: human placental GnRH receptor (human) (UniProt P30968); assay: competitive radioreceptor assay on human term placental membranes, radiolabeled Buserelin as competitor, double reciprocal plot

Molecule: chicken I GnRH (peptide)
fold less potent than GnRH [1]: 3 fold
fold more potent than salmon or chicken II GnRH [1]: 2 fold
relative potency compared to GnRH (relative potency) [2]: 0.6
Ki [3]: 80 nM

Molecule: 9OH-Pro-GnRH (from UniProt P01148 24-92) (peptide)
relative potency compared to GnRH (relative potency) [2]: 1.5

Molecule: D-Arg (6)-salmon GnRH-aza-Gly (10)-amide (peptide)
Ki [3]: 200 nM

Molecule: mammalian GnRH (from UniProt P01148 24-33) (peptide)
Ki [3]: 30 nM
Ks [4]: 30 nM
Ks [5]: 30 nM

Molecule: Mammalian D-Trp (6) GnRH (from UniProt P01148 24-92) (peptide)
Ki [3]: 20 nM

Molecule: chicken II GnRH (peptide)
relative potency compared to GnRH (relative potency) [2]: 0.2
Ki [3]: 200 nM
potency relative to mammalian GnRH [7]: 0.167 fold
fold potency over mammalian GnRH [8]: 3 fold

Molecule: chicken II GnRH-ethylamide (peptide)
fold less active than GnRH [1]: > 200 fold
Ki [3]: 130 nM
Kd [9]: 30 nM
fold activity over GnRH [9]: 33 fold

Molecule: [pGlu]HWSH[dR]WYP[azaGly]-NH2 (also: also used radioiodinated as label) [D-Arg(6)-chicken II GnRH-aza-Gly(10)-amide]
specific activity of binding, fold over placental membrane preparations [10]: 50 to 100 fold
Kd [11]: 60 nM
Kd [12]: 93 nM
fold affinity over chicken II GnRH or Buserelin [8]: 2 fold
fold affinity over mammalian GnRH [8]: 60 fold
Kd [13]: 10 nM
fold affinity over mammalian GnRH [14]: 25 fold
fold change of affinity against the assay with the Buserelin label [15]: 2 fold
Kd [16]: 68 nM
Kd [17]: 175 nM

Further molecules by falling Ki [3], results first:

relative potency compared to GnRH (relative potency) [2]: 0.2
Ki [3]: 300 nM
Molecule: salmon GnRH (peptide)

fold less potent than GnRH [1]: 3 fold
fold more potent than salmon or chicken II GnRH [1]: 2 fold
relative potency compared to GnRH (relative potency) [2]: 0.6
Ki [3]: 120 nM
Molecule: Antide (peptide)

rate of degradation by C-ase-1 (fold of the rate for mammalian GnRH) [6]: 0.25
Ki [3]: 110 nM
Molecule: Buserelin (from UniProt P01148 24-32) (peptide)

Ki [3]: 80 nM
Molecule: des-Gly10, D-Leu6-GnRH-ethylamide (from UniProt P01148 24-92) (peptide)

Ki [3]: 70 nM
Molecule: des-Gly10-GnRH-ethylamide (from UniProt P01148 24-92) (peptide)

Ki [3]: 60 nM
Molecule: 6D-Trp-GnRH-10 ethylamide (from UniProt P01148 24-32) (peptide)

relative potency compared to GnRH (relative potency) [2]: 1.5
Ki [3]: 20 nM
Molecule: lamprey GnRH (peptide)
